Tests used:
[1] = biological target: FcγRIIIA-streptavidin fusion protein (human; Streptomyces avidinii) (UniProt P08637); test: ELISA: antibody captured on protein A/G, FcγRIIIA-streptavidin (1:1000), biotin-HRP; the text speaks of IC50 values
[2] = biological target: FcγRI and FcγRII on THP-1 cells; test: flow cytometry, antibody on THP-1 cells, FITC anti-human IgG Fab
[3] = biological target: human C1q (Quidel) (human) (UniProt P02745); test: ELISA: antibody captured on protein A/G, human C1q 2 ug/ml, anti-C1q detection
Chain of human C1q (Quidel) (human) (P02745 23-245, chain 1 of 3): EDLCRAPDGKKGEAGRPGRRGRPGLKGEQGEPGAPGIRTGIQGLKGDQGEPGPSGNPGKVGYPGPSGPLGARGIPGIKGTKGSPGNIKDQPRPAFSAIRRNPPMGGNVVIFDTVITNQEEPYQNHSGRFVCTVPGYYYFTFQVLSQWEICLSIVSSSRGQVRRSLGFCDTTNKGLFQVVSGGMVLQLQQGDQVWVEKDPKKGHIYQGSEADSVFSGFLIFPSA
Chain of human C1q (Quidel) (human) (P02746 28-253, chain 2 of 3, further chain): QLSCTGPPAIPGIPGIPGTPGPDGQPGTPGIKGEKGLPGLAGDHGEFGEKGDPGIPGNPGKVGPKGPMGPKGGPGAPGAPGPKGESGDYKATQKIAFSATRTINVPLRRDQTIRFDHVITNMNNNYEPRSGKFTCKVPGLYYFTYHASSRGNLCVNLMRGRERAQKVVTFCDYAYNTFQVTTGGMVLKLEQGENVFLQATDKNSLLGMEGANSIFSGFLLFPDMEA
Chain of human C1q (Quidel) (human) (P02747 29-245, chain 3 of 3, further chain): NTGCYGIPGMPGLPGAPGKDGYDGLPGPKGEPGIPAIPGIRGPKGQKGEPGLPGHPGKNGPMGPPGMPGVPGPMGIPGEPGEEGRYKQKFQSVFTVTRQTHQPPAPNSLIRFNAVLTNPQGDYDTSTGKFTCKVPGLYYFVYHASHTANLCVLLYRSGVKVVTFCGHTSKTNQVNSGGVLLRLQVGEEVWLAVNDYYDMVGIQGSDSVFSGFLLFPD

Chain of FcγRIIIA-streptavidin fusion protein (human; Streptomyces avidinii) (P08637 17-208 limits assumed): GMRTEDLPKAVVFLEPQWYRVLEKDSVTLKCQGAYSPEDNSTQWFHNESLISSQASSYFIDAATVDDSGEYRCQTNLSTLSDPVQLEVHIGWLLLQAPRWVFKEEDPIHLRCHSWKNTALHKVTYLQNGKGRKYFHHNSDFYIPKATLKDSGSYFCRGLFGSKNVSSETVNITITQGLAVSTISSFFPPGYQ

FcγRIIIA Binding [1] [µg/mL]	FcγRI&II Binding (fold less, against wild type) [2] [fold]	C1q binding (fold less, against wild type) [3] [fold]	Substance
4.93	–	–	12G3H11 anti-EphA2 antibody Fc variant InE240/241 (soluble) (from UniProt P01857 1-330)
–	9	2	12G3H11 anti-EphA2 antibody Fc variant K246R/L251E/T260R (soluble)
0.5	–	–	12G3H11 anti-EphA2 antibody Fc variant W277T (soluble)

From patent US20070111260A1
